From the supplement of paper PMC9170038

Test system: MS2 coat protein
Assay: apparent KD of MS2 coat protein; higher = weaker reporter binding
Conditions: Eterna round: R107; input ligand: arginine 13.2 mM
In short: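 Designed RNA switches, transcribed on-chip from Illumina sequencing clusters, were titrated with SNAP-549-labelled MS2 coat protein from 0.7 or 1.5 nM to 3 µM in twofold steps. The solution was 100 mM Tris-HCl pH 7.5, 80 mM KCl, 4 mM MgCl2, with constant ligand or without it. Apparent KD is the median over each design's normalised cluster binding-curve fits.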

In the case of “AAACAUGAGGAUCACCCAUGUUCUCCUGUCCGAGGACCGGUACGGCCGCCACUCGGUUCUCGGGAGGAUGGUCAAAGACUAUCCA [Omei Trp A SS B v8]”, the “apparent KD of MS2 coat protein” value is reported as 12 nM.

Same assay, conditions: Eterna round: R107; input ligand: none

Going from “UUGGGUAUGCGAAGGAGCGGGAAAUAUAUAUAUAUAAUCCUAACAUGAGGAUCACCCAUGUCCCAGGUAGGUCGCGCAUAUUUGG [12.J]” to “UGGGUACAUGAGGAUCACCCAUGUACUGAAGGAGCGAGAAAUAUCUCAGGUAGGUCGCAGACAUGAGGAUCACCCAUGUAGUAGG [Exclusion Arginine A GF 11]”, the “apparent KD of MS2 coat protein” value falls from 62.9 nM to 28.1 nM (2.2-fold).

Compared with “AAAAUAUAGACGGCCGCCACUAUAAUCAUGAGGAACAUGAGGAUCACCCAUGUAUGAGGAUCACCUAGGACCGGGUCAUAUAAAA [#24 Exclusion Tryptophan B]”, “GGGUACAUCGCGGCCGCCACUCAUGUAAAUGCAUGAGGAUCACCCAUGCCGAUGGAGACAUCGGAGAGGACCGGGUGAUGUACCG” is 1.9-fold higher in “apparent KD of MS2 coat protein” value: 23.6 nM for the first, 45.8 nM for the second.

Going from “UACAUGAGGAUCACCCAUGUAUGAAGGGAUACCAGCGACAGUAAGCGCCCUUGGCAGCCCGUGAAUAAAGGGUGGGUAAAAUAGU [Exclusion Theophyline A GF 3]” to “CUAUAUAUAAGAAGGAGCGACAUGAGGAUCACCCAUGUCUACCACGUCGAAAGACGCUCAUGUCAGGUAGGUCGCUUAUAUAUAG [Astros-Eli-mod1]”, the “apparent KD of MS2 coat protein” value rises from 21.4 nM to 122 nM (5.7-fold).

Going from “AGCACUGUGACGGCCGCCACUAUAUAUAGGGUGGUCAGGUUCAUAAUACAUGAGGAUCACCCAUGUAGGACCGGGUCUCAGUGCA [Omei Trp Exc B A v4]” to “AUGCAUAGCGGAAGGAGCGCAAUAGAAUGACAUGAGGAUCACCCAUGUGUGUGAUGUGGGUUGCAGGUAGGUCGCCGAGUGGCAU [#11 Exclusion - Arginine B]”, the “apparent KD of MS2 coat protein” value rises from 12 nM to 80.9 nM (6.7-fold).

“GGACUAACCAGAAGGAGCGGCACGCAGAAACUGCAAAUUCCUCCACACGAGGAUCACCCGUGUCAGGUAGGUCGCUGGUUAGUCG” and “GUACAUGAGGAUCACCCAUGUAUAGUUGAAGGAGCGACCGGUGGGUCAGGUAGGUCGCAGCGCAUGGCGUCAACCCGUGUAUGCC [#1 Exclusion - Arginine A Attempt #27 (Inspired by Pi)]” are within 1.5-fold of each other in “apparent KD of MS2 coat protein” value: 21.5 nM for the first, 17.2 nM for the second.

“AAUAUAUAUCACGAACUGUGGUGUAUGUUGCGAGGACCGGUACGGCCGCCACUCGACCGGUGGUACAUGAGGAUCACCCAUGUUG [XTryp A #10]” and “UUGGUUAUGCGAAGGAGCGGGAAAUAUAUAUAUAUAAUCCUAACAUGAGGAUCACCCAUGUCCCAGGUAGGUCGCGCAUAGUUGG [12.I]” are within 1.5-fold of each other in “apparent KD of MS2 coat protein” value: 57.2 nM for the first, 69.5 nM for the second.

“AAGCGCACAUGAGGAUCACCCAUGUGCGGCCGAGGACCGGUACGGCCGCCACUCGGAACUAGAAAUAGGAACGGGUAGUGCGCAA [TryptophanA Sol_1]” and “AUAAAUAAUAAAUAUAAUAAAGUGGGUGAACGAGGACCGGUACGGCCGCCACUCGGACAUGAGGAUCACCCAUGUCCAUGUGAAA [AstrosExtTry#3]” are within 1.5-fold of each other in “apparent KD of MS2 coat protein” value: 11.7 nM for the first, 17.3 nM for the second.

Same assay, conditions: Eterna round: R107; input ligand: theophylline 20 uM

“AAGAGACAUGAGGAUCACCCAUGUGUUGAUACCAGAAACACAAAGUUCCCUUGGCAGCAAAUCUGAGCGAAACGAUCUAGAGCGC [theeternabot_sameState_MS2_Theo_A_30]” and “UUGGGUAUGCGAAGGAGCGGGAAAUAUAUAUAUAUAAUCCUAACAUGAGGAUCACCCAUGUCCCAGGUAGGUCGCGCAUAUUUGG [12.J]” are within 1.5-fold of each other in “apparent KD of MS2 coat protein” value: 84.9 nM for the first, 88.9 nM for the second.

“UGGGUACAUGAGGAUCACCCAUGUACUGAAGGAGCGAGAAAUAUCUCAGGUAGGUCGCAGACAUGAGGAUCACCCAUGUAGUAGG [Exclusion Arginine A GF 11]” and “AGAAUAUAGUCGGCCGCCACUCUUCAUACAUGAGGAUCACCCAUGUUUAAUUCUUGGAUAUUCUUGAGGACCGGGACAUAGGCAU [JR_SSTryptoB_Sub019]” are within 1.5-fold of each other in “apparent KD of MS2 coat protein” value: 31.8 nM for the first, 23.1 nM for the second.

First: AAAAUAUAGACGGCCGCCACUAUAAUCAUGAGGAACAUGAGGAUCACCCAUGUAUGAGGAUCACCUAGGACCGGGUCAUAUAAAA [#24 Exclusion Tryptophan B]
Second: UUUACAUGAGGAUCACCCAUGUUCCAUGAUACCAGACAUGAAAAUGUCCCUUGGCAGCAUGAAUGAUUCAUAGGAUAAUUAUGGG [Medlanky]
The “apparent KD of MS2 coat protein” value of the first is 3.7-fold lower: 31.3 nM for the first, 116 nM for the second.

“UGUUUGGUGCGCGAGUGUUGGAUAAUUGAUACCAGUGUAGAAGAGCGCCCUUGGCAGCGAAUCCUAACAUGAGGAUCACCCAUGU [5.W]” and “GGGUACAUCGCGGCCGCCACUCAUGUAAAUGCAUGAGGAUCACCCAUGCCGAUGGAGACAUCGGAGAGGACCGGGUGAUGUACCG” are within 1.5-fold of each other in “apparent KD of MS2 coat protein” value: 54.7 nM for the first, 68.7 nM for the second.

“ACACAUGAGGAUCACCCAUGUUCAAUAGAUACCAGUGAUACGGUGCACCCUUGGCAGCUGUUGCUGAGUGAUGGUUCCCUCGGAA [#22 SameState-TheophyllineA]” and “GAAACGUAGGUGGAGCGGUGAAAUGGCGAUACCAGCGUGGAAACACGCCCUUGGCAGCGUUAGAACAUGAGGAUCACCCAUGUUU [#21 Exclusion-TheophyllineA]” are within 1.5-fold of each other in “apparent KD of MS2 coat protein” value: 75.6 nM for the first, 62.4 nM for the second.

First: UACAUGAGGAUCACCCAUGUAUGAAGGGAUACCAGCGACAGUAAGCGCCCUUGGCAGCCCGUGAAUAAAGGGUGGGUAAAAUAGU [Exclusion Theophyline A GF 3]
Second: ACGACGCAUAGUGAUACCAGUACAACAUGAGGAUCACCCAUGUCACAUAUGUUGUAAUAGUGCCCUUGGCAGCACUAUGCGUCAG [SSTheo B #3]
The “apparent KD of MS2 coat protein” value of the first is 3.4-fold lower: 30.9 nM for the first, 106 nM for the second.

Compared with “CUAUAUAUAAGAAGGAGCGACAUGAGGAUCACCCAUGUCUACCACGUCGAAAGACGCUCAUGUCAGGUAGGUCGCUUAUAUAUAG [Astros-Eli-mod1]”, “CGAUGAUGAAGGGAUACCAGAAAUGGUAUUCCUUUAUUUCUUACAUGAGGAUCACCCAUGUUCCCUUGGCAGCUUUUUAUCAUCG [ETHB #6]” is 1.9-fold lower in “apparent KD of MS2 coat protein” value: 155 nM for the first, 82.6 nM for the second.
